Test results from IntAct's records for PubMed 31515488.

B1: NADPH oxidase activator 1 (Homo sapiens), Q86UR1 (parent)
chain: MASLGDLVRAWHLGAQAVDRGDWARALHLFSGVPAPPARLCFNAGCVHLLAGDPEAALRAFDQAVTKDTCMAVGFFQRGVANFQLARFQEALSDFWLALEQLRGHAAIDYTQLGLRFKLQAWEVLHNVASAQCQLGLWTEAASSLREAMSKWPEGSLNGLDSALDQVQRRGSLPPRQVPRGEVFRPHRWHLKHLEPVDFLGKAKVVASAIPDDQGWGVRPQQPQGPGANHDARSLIMDSPRAGTHQGPLDAETEVGADRCTSTAYQEQRPQVEQVGKQAPLSPGLPAMGGPGPGPCEDPAGAGGAGAGGSEPLVTVTVQCAFTVALRARRGADLSSLRALLGQALPHQAQLGQLSYLAPGEDGHWVPIPEEESLQRAWQDAAACPRGLQLQCRGAGGRPVLYQVVAQHSYSAQGPEDLGFRQGDTVDVLCEVDQAWLEGHCDGRIGIFPKCFVVPAGPRMSGAPGRLPRSQQGDQP
B2: Caspase-2 (Homo sapiens), P42575 (parent)
chain: MAAPSAGSWSTFQHKELMAADRGRRILGVCGMHPHHQETLKKNRVVLAKQLLLSELLEHLLEKDIITLEMRELIQAKVGSFSQNVELLNLLPKRGPQAFDAFCEALRETKQGHLEDMLLTTLSGLQHVLPPLSCDYDLSLPFPVCESCPLYKKLRLSTDTVEHSLDNKDGPVCLQVKPCTPEFYQTHFQLAYRLQSRPRGLALVLSNVHFTGEKELEFRSGGDVDHSTLVTLFKLLGYDVHVLCDQTAQEMQEKLQNFAQLPAHRVTDSCIVALLSHGVEGAIYGVDGKLLQLQEVFQLFDNANCPSLQNKPKMFFIQACRGDETDRGVDQQDGKNHAGSPGCEESDAGKEKLPKMRLPTRSDMICGYACLKGTAAMRNTKRGSWYIEALAQVFSERACDMHVADMLVKVNALIKDREGYAPGTEFHRCKEMSEYCSTLCRHLYLFPGHPPT
B3: Peroxisomal bifunctional enzyme (Homo sapiens), Q08426 (parent)
chain: MAEYTRLHNALALIRLRNPPVNAISTTLLRDIKEGLQKAVIDHTIKAIVICGAEGKFSAGADIRGFSAPRTFGLTLGHVVDEIQRNEKPVVAAIQGMAFGGGLELALGCHYRIAHAEAQVGLPEVTLGLLPGARGTQLLPRLTGVPAALDLITSGRRILADEALKLGILDKVVNSDPVEEAIRFAQRVSDQPLESRRLCNKPIQSLPNMDSIFSEALLKMRRQHPGCLAQEACVRAVQAAVQYPYEVGIKKEEELFLYLLQSGQARALQYAFFAERKANKWSTPSGASWKTASARPVSSVGVVGLGTMGRGIVISFARARIPVIAVDSDKNQLATANKMITSVLEKEASKMQQSGHPWSGPKPRLTSSVKELGGVDLVIEAVFEEMSLKKQVFAELSAVCKPEAFLCTNTSALDVDEIASSTDRPHLVIGTHFFSPAHVMKLLEVIPSQYSSPTTIATVMNLSKKIKKIGVVVGNCFGFVGNRMLNPYYNQAYFLLEEGSKPEEVDQVLEEFGFKMGPFRVSDLAGLDVGWKSRKGQGLTGPTLLPGTPARKRGNRRYCPIPDVLCELGRFGQKTGKGWYQYDKPLGRIHKPDPWLSKFLSRYRKTHHIEPRTISQDEILERCLYSLINEAFRILGEGIAASPEHIDVVYLHGYGWPRHKGGPMFYASTVGLPTVLEKLQKYYRQNPDIPQLEPSDYLKKLASQGNPPLKEWQSLAGSPSSKL
partner: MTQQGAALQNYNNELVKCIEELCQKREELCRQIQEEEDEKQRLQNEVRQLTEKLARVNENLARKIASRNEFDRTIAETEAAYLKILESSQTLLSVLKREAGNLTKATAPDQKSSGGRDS
B4: Probable splicing factor YJU2B (Homo sapiens), P13994 (parent)
chain: MGERKGVNKYYPPDFNPEKHGSLNRYHNSHPLRERARKLSQGILIIRFEMPYNIWCDGCKNHIGMGVRYNAEKKKVGNYYTTPIYRFRMKCHLCVNYIEMQTDPANCDYVIVSGAQRKEERWDMADNEQVLTTEHEKKQKLETDAMFRLEHGEADRSTLKKALPTLSHIQEAQSAWKDDFALNSMLRRRFREKKKAIQEEEERDQALQAKASLTIPLVPETEDDRKLAALLKFHTLDSYEDKQKLKRTEIISRSWFPSAPGSASSSKVSGVLKKLAQSRRTALATSPITVGDLGIVRRRSRDVPESPQHAADTPKSGEPRVPEEAAQDRPMSPGDCPPETTETPKCSSPRGQEGSRQDKPLSPAGSSQEAADTPDTRHPCSLGSSLVADYSDSESE
B5: Tyrosine aminotransferase (Homo sapiens), P17735 (parent)
chain: MDPYMIQMSSKGNLPSILDVHVNVGGRSSVPGKMKGRKARWSVRPSDMAKKTFNPIRAIVDNMKVKPNPNKTMISLSIGDPTVFGNLPTDPEVTQAMKDALDSGKYNGYAPSIGFLSSREEIASYYHCPEAPLEAKDVILTSGCSQAIDLCLAVLANPGQNILVPRPGFSLYKTLAESMGIEVKLYNLLPEKSWEIDLKQLEYLIDEKTACLIVNNPSNPCGSVFSKRHLQKILAVAARQCVPILADEIYGDMVFSDCKYEPLATLSTDVPILSCGGLAKRWLVPGWRLGWILIHDRRDIFGNEIRDGLVKLSQRILGPCTIVQGALKSILCRTPGEFYHNTLSFLKSNADLCYGALAAIPGLRPVRPSGAMYLMVGIEMEHFPEFENDVEFTERLVAEQSVHCLPATCFEYPNFIRVVITVPEVMMLEACSRIQEFCEQHYHCAEGSQEECDK

Variants of: B1
Settings: with rim3a_human RIMBP3, Q9UFD9
Sequence of rim3a_human RIMBP3, Q9UFD9 (Q9UFD9 whole entry): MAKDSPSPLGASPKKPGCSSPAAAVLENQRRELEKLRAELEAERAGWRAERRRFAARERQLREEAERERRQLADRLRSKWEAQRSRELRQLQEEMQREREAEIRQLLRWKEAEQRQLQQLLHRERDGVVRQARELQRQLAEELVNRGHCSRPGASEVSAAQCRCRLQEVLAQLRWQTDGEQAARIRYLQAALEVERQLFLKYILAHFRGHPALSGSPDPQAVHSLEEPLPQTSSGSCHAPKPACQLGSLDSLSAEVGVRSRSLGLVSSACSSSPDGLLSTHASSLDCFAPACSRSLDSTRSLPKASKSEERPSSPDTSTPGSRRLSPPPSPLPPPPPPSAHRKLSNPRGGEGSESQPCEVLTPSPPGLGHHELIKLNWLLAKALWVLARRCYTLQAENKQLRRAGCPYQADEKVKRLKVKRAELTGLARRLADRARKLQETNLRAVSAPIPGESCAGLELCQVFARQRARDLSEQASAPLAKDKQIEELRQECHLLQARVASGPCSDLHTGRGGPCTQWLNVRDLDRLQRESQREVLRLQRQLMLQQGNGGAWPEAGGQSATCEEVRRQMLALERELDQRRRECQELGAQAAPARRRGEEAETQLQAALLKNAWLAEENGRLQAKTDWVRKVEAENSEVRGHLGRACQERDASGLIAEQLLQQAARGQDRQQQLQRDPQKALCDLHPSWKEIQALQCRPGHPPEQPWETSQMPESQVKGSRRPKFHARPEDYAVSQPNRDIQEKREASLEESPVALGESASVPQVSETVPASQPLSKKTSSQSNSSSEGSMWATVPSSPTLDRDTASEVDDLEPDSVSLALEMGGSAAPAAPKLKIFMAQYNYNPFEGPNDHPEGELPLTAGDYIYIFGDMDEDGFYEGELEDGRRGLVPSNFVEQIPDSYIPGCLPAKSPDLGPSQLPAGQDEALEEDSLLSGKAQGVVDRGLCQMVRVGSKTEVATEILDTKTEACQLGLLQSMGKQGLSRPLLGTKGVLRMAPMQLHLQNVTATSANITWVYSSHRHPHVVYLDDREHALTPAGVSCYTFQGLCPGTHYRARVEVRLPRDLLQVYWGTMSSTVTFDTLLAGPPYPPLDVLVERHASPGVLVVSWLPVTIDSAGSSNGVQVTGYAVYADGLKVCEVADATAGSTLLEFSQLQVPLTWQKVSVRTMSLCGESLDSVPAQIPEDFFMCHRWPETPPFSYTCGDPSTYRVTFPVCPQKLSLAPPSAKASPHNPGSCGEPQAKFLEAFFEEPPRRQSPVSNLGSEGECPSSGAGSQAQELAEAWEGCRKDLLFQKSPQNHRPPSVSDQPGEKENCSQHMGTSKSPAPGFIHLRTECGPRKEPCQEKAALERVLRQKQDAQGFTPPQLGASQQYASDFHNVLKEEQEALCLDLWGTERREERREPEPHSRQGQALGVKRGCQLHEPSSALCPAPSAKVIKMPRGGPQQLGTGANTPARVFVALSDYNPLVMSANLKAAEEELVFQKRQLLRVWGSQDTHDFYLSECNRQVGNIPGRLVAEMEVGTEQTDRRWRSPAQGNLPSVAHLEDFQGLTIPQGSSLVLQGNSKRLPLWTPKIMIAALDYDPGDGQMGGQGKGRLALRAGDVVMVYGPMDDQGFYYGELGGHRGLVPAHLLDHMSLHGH

Variant	effect of a mutation on the interaction
D6E	with no effect

Variants of: B2
Settings: with cradd_human CRADD

Variant	effect of a mutation on the interaction
E388K	with no effect
V29E	with no effect
R265G	with no effect

Other lines, results leading:

effect of a mutation on the interaction	Variant
with no effect	G349S
with no effect	R155H

Variants of: B3
Settings: with ssna1_human SSNA1, O43805

Variant	effect of a mutation on the interaction
R556G	with no effect
Q685K	with no effect

Variants of: B4
Settings: with znf24_human ZNF24, P17028
Sequence of znf24_human ZNF24, P17028 (P17028 whole entry): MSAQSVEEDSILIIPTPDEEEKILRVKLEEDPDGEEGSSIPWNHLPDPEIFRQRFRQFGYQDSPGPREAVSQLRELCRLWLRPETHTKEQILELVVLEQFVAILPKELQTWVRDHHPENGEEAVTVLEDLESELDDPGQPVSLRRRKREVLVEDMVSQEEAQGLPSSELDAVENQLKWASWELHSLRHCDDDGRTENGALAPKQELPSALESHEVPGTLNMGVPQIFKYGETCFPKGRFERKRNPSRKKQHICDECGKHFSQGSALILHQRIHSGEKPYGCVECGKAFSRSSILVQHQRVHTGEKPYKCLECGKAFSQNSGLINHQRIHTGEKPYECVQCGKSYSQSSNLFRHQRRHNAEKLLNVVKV

Variant	effect of a mutation on the interaction
S22C	with no effect

Variants of: B4
Settings: with traf2_human TRAF2, Q12933
Sequence of traf2_human TRAF2, Q12933 (Q12933 whole entry): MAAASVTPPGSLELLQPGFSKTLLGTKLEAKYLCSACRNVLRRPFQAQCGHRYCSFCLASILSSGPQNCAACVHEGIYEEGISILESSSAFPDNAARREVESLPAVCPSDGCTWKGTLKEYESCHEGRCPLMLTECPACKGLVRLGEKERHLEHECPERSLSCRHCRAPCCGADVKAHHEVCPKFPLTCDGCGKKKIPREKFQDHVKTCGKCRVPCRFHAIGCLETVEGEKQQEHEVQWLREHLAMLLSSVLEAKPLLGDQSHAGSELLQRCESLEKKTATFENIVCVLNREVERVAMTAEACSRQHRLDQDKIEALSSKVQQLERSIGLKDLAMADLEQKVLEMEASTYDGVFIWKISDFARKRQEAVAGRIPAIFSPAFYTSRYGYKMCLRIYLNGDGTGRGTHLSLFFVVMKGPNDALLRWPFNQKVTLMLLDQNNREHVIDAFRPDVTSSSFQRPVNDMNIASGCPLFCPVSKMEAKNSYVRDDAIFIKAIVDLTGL

Variant	effect of a mutation on the interaction
S22C	with no effect

Variants of: B5
Settings: with ube3a_human UBE3A

Variant	effect of a mutation on the interaction
R119W	disrupting interaction strength
